Measured values taken from patent US20200223915A1 (OSAKA UNIVERSITY, published 2020).

T1: wild-type human Claudin 9 protein (human, UniProt O95484 1-217)
T1 construct: Expressed on cells by retrovirus; Wording leaves open whether the entry is the protein or the DNA; also called hCLDN9
T1 sequence: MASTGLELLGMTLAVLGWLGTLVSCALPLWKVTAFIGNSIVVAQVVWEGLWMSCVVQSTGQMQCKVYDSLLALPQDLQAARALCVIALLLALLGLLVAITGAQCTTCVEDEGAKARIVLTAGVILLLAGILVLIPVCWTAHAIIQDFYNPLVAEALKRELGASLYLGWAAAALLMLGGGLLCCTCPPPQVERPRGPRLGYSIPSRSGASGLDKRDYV

T2: wild-type mouse Claudin 1 protein (mouse, UniProt O88551 1-211)
T2 construct: Expressed on cells by retrovirus; Wording leaves open whether the entry is the protein or the DNA; also called mCLDN1
T2 sequence: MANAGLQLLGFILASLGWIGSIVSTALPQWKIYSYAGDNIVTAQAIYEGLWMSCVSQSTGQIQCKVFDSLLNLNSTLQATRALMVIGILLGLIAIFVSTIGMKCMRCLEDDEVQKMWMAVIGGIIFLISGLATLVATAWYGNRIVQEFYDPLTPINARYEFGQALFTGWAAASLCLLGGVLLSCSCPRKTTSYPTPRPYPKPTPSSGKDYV

T3: wild-type mouse Claudin 3 protein (mouse, UniProt Q9Z0G9 1-219)
T3 construct: Expressed on cells by retrovirus; Wording leaves open whether the entry is the protein or the DNA; also called mCLDN3
T3 sequence: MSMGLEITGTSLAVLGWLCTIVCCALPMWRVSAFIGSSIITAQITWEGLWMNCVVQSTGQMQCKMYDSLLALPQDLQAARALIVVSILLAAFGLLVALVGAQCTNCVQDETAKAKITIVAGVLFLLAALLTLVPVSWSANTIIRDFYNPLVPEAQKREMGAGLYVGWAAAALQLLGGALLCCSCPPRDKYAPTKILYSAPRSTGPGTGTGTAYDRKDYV

T4: wild-type rat Claudin 5 protein (rat, UniProt Q9JKD6 1-218)
T4 sequence: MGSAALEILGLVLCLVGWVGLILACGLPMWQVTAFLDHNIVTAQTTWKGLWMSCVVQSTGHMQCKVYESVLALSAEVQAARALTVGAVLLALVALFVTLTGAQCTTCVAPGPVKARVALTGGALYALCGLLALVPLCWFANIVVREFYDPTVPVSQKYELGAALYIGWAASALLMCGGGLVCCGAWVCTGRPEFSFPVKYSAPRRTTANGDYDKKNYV

T5: wild-type human Claudin 5 protein (human, UniProt O00501 1-218)
T5 construct: also called hCLDN5; CLDN 5
T5 sequence: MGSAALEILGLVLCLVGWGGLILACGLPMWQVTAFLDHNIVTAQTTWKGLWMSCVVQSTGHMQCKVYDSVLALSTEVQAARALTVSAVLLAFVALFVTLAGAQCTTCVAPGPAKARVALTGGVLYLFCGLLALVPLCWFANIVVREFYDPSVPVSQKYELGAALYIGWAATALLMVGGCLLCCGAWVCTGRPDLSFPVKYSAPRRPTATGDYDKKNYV


Columns and labels:
[1] = target: T1, wild-type human Claudin 9 protein; experiment: FACS on Claudin-expressing cells
Description: (§1) The cells were washed three times with 0.2% BSA-TBS, and then mixed with 100 μL of a secondary antibody solution (FITC conjugated goat anti-mouse IgG+IgM in 1% BSA-PBS (1:400)), followed by a reaction at 4° C. for 1 hour. The cells were washed with 0.2% BSA-TBS, and FACS analysis (FACS caliber, BD Bioscience) was performed.

[2] = target: T2, wild-type mouse Claudin 1 protein; experiment: FACS on Claudin-expressing cells
Description: as §1

[3] = target: T3, wild-type mouse Claudin 3 protein; experiment: FACS on Claudin-expressing cells
Description: as §1

[4] = target: T4, wild-type rat Claudin 5 protein; experiment: FACS on Claudin 5-expressing cells (species comparison)
Description: as §1
FIG. 5 illustrates histograms with the horizontal axis representing the fluorescence signal, and the vertical axis representing the cell count. FIG. 6 illustrates a comparison of the amino acid. sequences of Claudin 5 protein of different species.

[5] = target: T5, wild-type human Claudin 5 protein; experiment: FACS on human Claudin 5-expressing HT-1080 cells; 50% saturation of the MFI binding curve
Description: as §1

binding result [1]	binding result [2]	binding result [3]	binding result [4]	Kd [5]	Binder
no binding (tested: 10 µg/mL)	no binding (tested: 10 µg/mL)	no binding (tested: 10 µg/mL)	no binding (tested: 10 µg/mL)	7.3 nM	antibody 2B12 (antibody, IgG2a, V domains shown, also called antibody A) VH: QVQLQQSGAELARPGASVKLSCKASGYTFTRFGMSWVKQRTGQGLEWIGEIYPGSGDTYYSENFKGKATLTADKSSGTAYMELRSLTSEDSAVYFCARWGIYYGNPYAMDYWGQGTSVTVSS VL: DIVMTQAAPSVPVTPGESVSISCRSSKSLLHSNGNTYLYWFLQRPGQSPQLLIYRMSNLASGVPDRFSGSGSGTAFTLRISRVEAEDVGVYYCLQHLEYPFTFGSGTKLEIKR
no binding (tested: 10 µg/mL)	no binding (tested: 10 µg/mL)	no binding (tested: 10 µg/mL)	no binding (tested: 10 µg/mL)	6.9 nM	antibody 2B1 (antibody, IgG2a, V domains shown, also called antibody B) VH: QVQLQQPGAELVKPGASVKLSCKASGYTFTTFWIHWVKQRPGRGLEWIGRIAPYSGGTTYNEKFKSKATLTVDRPSTTAYMQLISLTSEDSAVYYCARWDFTYGSNLDYWGQGTTLTVSS VL: DIVMTQSQKFMSTSVGDRVSIPCKASQNVRTAVAWYQQKPGQSPKALIYLASNRHTGVPDRFTGSGSGTDFTLTISNVQSEDLADYFCLGHWDYPYTFGGGTKLEIKR
